Some targets named below: N501Y; K417N; N439K; A475V; Y453F.
Holding throughout (settings): remark: other sources report otherwise
Assay [1] deals with T1, SARS-CoV-2 spike receptor-binding domain (RBD) (SARS-CoV-2), P0DTC2.
The target of assay [2] is T1, SARS-CoV-2 spike receptor-binding …. In words: indirect ELISA on coated RBD ('ELISA affinity').
Assay [3] has the same target. The source holds these as a separate data set.
Assay [4] has the same target. The source holds these as a separate data set.
The target is the same in assay [5]. The assay is described as follows: ELISA; the sheet does not name the coated protein, the legend paragraph 51 says RBD. A general note: ELISA stands for enzyme-linked immunosorbent assay.
Assay [6] shares this target. In words: SPR (Biacore 3000), RBD immobilised. On the technique in general: SPR reads the build-up and loss of mass on a sensor chip optically.

Where two headings read alike, the source gives them in different places.

B1: Nb17 (VHH)
VHH: HVQLVESGGGLVQAGGSLRLSCAASGSIFSSNAMSWYRQAPGKQRELVASITSGGNADYADSVKGRFTISRDKNTVYPEMSSLKPADTAVYYCHAVGQEASAYAPRAYWGQGTQVTVSS
What is called EC50 (read off the curve) is the concentration that produces a half-maximal response. A higher EC50 (read off the curve) goes with a need for much substance. In general, IC50 refers to the concentration needed to halve the response being measured. Consider B1, for which the EC50 (read off the curve) in [1] came to 1000 pM. Moreover, the binding affinity fold change relative to RBD WT was 1.5 fold in the assay with N501Y; -1.2 fold with K417N; 1.33 fold with N439K; 1.16 fold with A475V; 1.61 fold with Y453F. The IC50 came out at 450 pM in [2] and 690 pM in assay [3].

B2: Nb21 (VHH)
VHH: QVQLVESGGGLVQAGGSLRLSCAVSGLGAHRVGWFRRAPGKEREFVAAIGANGGNTNYLDSVKGRFTISRDNAKNTIYLQMNSLKPQDTAVYYCAARDIETAEYTYWGQGTQVTVSS
One may read the Kd as the constant that tells how readily two partners part at equilibrium. Higher therefore signals weaker binding. Broadly, the koff is a measure of how fast the partners let go of each other. Read a low koff as a long-lived complex. The term kon denotes the second-order rate constant of association. A lower kon goes with slower complex formation. As for B2, the binding affinity fold change relative to RBD WT with N501Y is -2.83 fold; in the assay with K417N it was -1.43 fold; with N439K, 1.18 fold; in the assay with A475V it was -1.31 fold; in the assay with Y453F, 1.04 fold. Further, the IC50 in assay [2] is 300 pM; in assay [3], 420 pM. The EC50 (read off the curve) in [4] came to 1000 pM; in assay [5], 5000 pM. In addition, the Kd in assay [6] was under 1 pM. The same molecule displayed a koff in [6] of under 1e-06 s⁻¹. In assay [6], the kon turned out to be 3.79e+06 M⁻¹ s⁻¹.

The record behind these values is patent publication US20240043505A1.
